Measured values: US8008452B2, “Phosphorylated Ndr kinase” (Novartis Forschungesstiftung, Zweigniederlassung Friedrich …, priority 2002, dated 2011)

Legend:
HA-NDR1 = assay: Immunodetection of HA-NDR1 phosphorylated on Ser281 or Thr444 from COS-1 cells; format: cell-based, human
Protocol: (§1) Either 1 microgram GST-NDR1 or HA-NDR1 immunoprecipitated from 100 microgram COS-1 detergent extracts as described above was separated on 10% SDS-PAGE and immunoblotted 2 h at RT or overnight at 4° C. with anti-Ser281P antisera (1:1000) in the presence of 50 microg/ml competing unphosphopeptide or anti-Thr444P purified antibody (1:500). Both antibodies were detected with horseradish peroxidase-conjugated donkey anti-rabbit Ig antibody (Amersham biosciences) and developed by ECL (chemiluminescence; Amersham Pharmacia Biotech).
To examine this possibility, extracts from transfected COS-1 cells were analyzed with the anti-Ser281P and anti-Thr444P antisera. Protein extracts (10 microg) from transfected COS-1 cells were immunoblotted with 12CA5 to verify similar expression levels of each HA-NDR1 construct. For the analysis of phosphorylation status, 12CA5-immunoprecipitated HA-NDR1 variants (out of 100 microg protein extract) were analysed by immunoblotting with phosphospecific antibodies directed against P-S281 or P-T444.
Protein extracts (10 microg) from mock- and HA-NDR1-transfected COS-1 cells were also immunoblotted with 12CA5 to verify equal expression levels of HA-NDR1 construct. For the analysis of phosphorylation status, 12CA5-immunoprecipitated HA-NDR1 (out of 100 microgram protein extract) was analysed by immunoblotting with phosphospecific antibodies directed against P-S281 or P-T444.

GST-NDR1 [1] = assay: GST-NDR1 kinase assay (peptide kinase assay); format: biochemical, human; set-up: Specific activity of GST-NDR1 variants, CTRL / Specific activity of GST-NDR1 variants, −S100B / Specific activity of GST-NDR1 variants, +S100B: unit not given here; conditions: for Specific activity of GST-NDR1 variants, −S100B: autophosphorylated 2 h in the absence of CaCl2 and S100B; for Specific activity of GST-NDR1 variants, +S100B: autophosphorylated 2 h in the presence of 1 mM CaCl2 and 10 mM bovine S100B; for Specific activity of GST-NDR1 variants, CTRL: left without further treatment
Protocol: (§2) 1 microgram of purified recombinant GST-NDR1 wild type and mutants (without further treatment or autophosphorylated for 2 h in the presence or absence of 1 mM CaCl2 and […] (Sigma)) were assayed in 20 microliter of reaction mixture containing 20 mM Tris-HCl pH 7.5, 10 mM MgCl2, 1 mM DTT, 100 microM [gamma-^32P]ATP (˜0.5 microCi/microliter), and 1 mM NDR1 substrate peptide ([…]; SEQ ID NO:22). After 30 mins incubation at 30° C., reactions were stopped with 50 mM EDTA, and 10 microliters of reaction mixture were spotted onto 2 cm^2 squares of P81 phosphocellulose paper (Whatman). These were subsequently washed for 4×5 min and 3×20 min in 1% phosphoric acid and once in acetone before counting in a liquid scintillation counter. One unit of NDR1 activity was defined as the amount which catalyses the phosphorylation of 1 nmol peptide substrate in 1 min.
(§3) Specific activity of GST-NDR1 mutants was also measured by a peptide kinase assay as described above. For this purpose, 1 microgram of purified GST-NDR1 wild type and alanine mutants were left without further treatment or autophosphorylated for 2 h in the presence or absence of 1 mM CaCl2 and […].

GST-NDR1 [2] = assay: Immunodetection of GST-NDR1 phosphorylated on Ser281 or Thr444 after in vitro autophosphorylation; format: biochemical, human; conditions: in vitro autophosphorylation with or without Ca2+/S100B
Protocol: as §1
To reliably quantify the effect of S100B on NDR1 phosphorylation status, rabbit polyclonal antibodies were raised against phosphoepitopes comprising Ser281 or Thr444. GST-NDR1 mutants were treated essentially as described in Example 2 and detected either with anti-NDR1_C-term antiserum or polyclonal antibodies recognising NDR1 phosphorylated on Ser281 or Thr444.

GST-NDR1 [3] = molecular target: T1, GST-NDR1 (Homo sapiens, UniProt Q15208, T444A); assay: GST-NDR1 kinase assay (peptide kinase assay); format: biochemical; set-up: Specific activity of GST-NDR1 variants, CTRL / Specific activity of GST-NDR1 variants, −S100B / Specific activity of GST-NDR1 variants, +S100B: unit not given here; conditions: compared with wild type
T1 construct: made in house; host or cells: E. coli BL21-DE3-pRep4
T1 sequence (Q15208 whole entry T444A): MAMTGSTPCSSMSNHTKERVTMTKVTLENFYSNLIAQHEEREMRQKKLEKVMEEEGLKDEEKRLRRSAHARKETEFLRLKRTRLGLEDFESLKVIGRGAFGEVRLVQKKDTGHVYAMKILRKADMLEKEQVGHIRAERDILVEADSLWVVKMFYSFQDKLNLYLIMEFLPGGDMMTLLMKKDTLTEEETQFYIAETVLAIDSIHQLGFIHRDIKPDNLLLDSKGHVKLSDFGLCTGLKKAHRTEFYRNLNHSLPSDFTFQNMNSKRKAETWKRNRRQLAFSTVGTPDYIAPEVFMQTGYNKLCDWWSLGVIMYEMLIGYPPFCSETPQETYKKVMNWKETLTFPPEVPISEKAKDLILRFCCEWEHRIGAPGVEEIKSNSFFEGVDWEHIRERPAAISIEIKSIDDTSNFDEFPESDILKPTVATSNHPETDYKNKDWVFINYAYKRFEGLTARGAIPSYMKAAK
Protocol: as §2, §3

Substance	phosphorylation of HA-NDR1 on Ser281 (HA-NDR1; immunoblot with anti-P-S281)	phosphorylation of HA-NDR1 on Thr444 (HA-NDR1; immunoblot with anti-P-T444)	Specific activity of GST-NDR1 variants, −S100B (GST-NDR1 [1])	Specific activity of GST-NDR1 variants, +S100B (GST-NDR1 [1])	Specific activity of GST-NDR1 variants, CTRL (GST-NDR1 [1])	phosphorylation of GST-NDR1 on Ser281 and Thr444 (phosphospecific antibodies) (GST-NDR1 [2])	kinase activity of GST-NDR1 mutant (in words) (GST-NDR1 [1]; compared with wild type)	decrease of kinase activity of GST-NDR1 mutant (GST-NDR1 [3])
K118A: NDR1 kinase dead mutant, Lys 118 to alanine; GST fusion or HA-tagged	did not display any phophorylation on this position	became phosphorylated even after abolishing the kinase activity	0.272	0.222	0.158	–	–	–
T74A: NDR1 alanine mutant of phosphorylation residue Thr74; GST fusion or HA-tagged	–	–	3.786	7.818	1.006	abolished the S100B-mediated increase of phosphorylation for both Ser281 and Thr444 residues	negligible reduction	–
T444A: NDR1 alanine mutant of phosphorylation residue Thr444; GST fusion or HA-tagged	–	–	1.92	3.974	0.564	almost normal autophosphorylation on Ser281	–	about 5 fold
